Assay results published in patent publication US20030032096A1 (US Dept. of Health and Human Services, published 2003).
“And” between values parts separate entries of the source, which are not always exact repeats. Equal entries are not always repeated. Where two headings read alike, the source gives them in different places. Each block holds one molecule with its values, some of them ahead of it. No end group written: not given here. *: point of attachment. 125I = [125I]*

Key:
[1] = biological target: human parathyroid hormone type 2 receptor (PTH2 receptor) (human) (UniProt P49190); assay: cell-based or functional assay
rat PTH2 receptor = rat PTH2 receptor (rat, UniProt P70555 25-546); assay: cell-based or functional assay
[2] = biological target: human parathyroid hormone type 1 receptor (PTH1 receptor) (human) (UniProt Q03431); assay: displacement of [125I][Nle8,21,Tyr34]rPTH(1-34), HEK293 membranes, 10 µM GTPγS
[3] = biological target: C-terminal hemaglutinin-tagged human PTH1 receptor (Example 11) (human) (UniProt Q03431); assay: cell-based or functional assay
[4] = biological target: human parathyroid hormone type 1 receptor (PTH1 receptor) (human) (UniProt Q03431); assay: Motulsky and Mahan kinetic competition with [125I]TIP(7-39), HEK293 membranes
[5] = biological target: human parathyroid hormone type 1 receptor (PTH1 receptor) (human) (UniProt Q03431); assay: radioligand binding to the PTH1 receptor
[6] = biological target: human parathyroid hormone type 1 receptor (PTH1 receptor) (human) (UniProt Q03431); assay: direct dissociation of the radioligand from the PTH1 receptor
[7] = biological target: human parathyroid hormone type 2 receptor (PTH2 receptor) (human) (UniProt P49190); assay: displacement of [125I]TIP39, HEK293 membranes, centrifugation assay
[8] = biological target: human parathyroid hormone type 2 receptor (PTH2 receptor) (human) (UniProt P49190); assay: displacement of [125I]TIP39, HEK293 membranes, with against without GTPγS
[9] = biological target: human parathyroid hormone type 2 receptor (PTH2 receptor) (human) (UniProt P49190); assay: membrane radioligand binding, absence of GTPγS
[10] = biological target: human parathyroid hormone type 2 receptor (PTH2 receptor) (human) (UniProt P49190); assay: membrane radioligand binding, presence of GTPγS
[11] = biological target: human parathyroid hormone type 1 receptor (PTH1 receptor) (human) (UniProt Q03431); assay: radioligand binding, HEK293 membranes, 10 µM GTPγS, 43 000 cpm added
[12] = biological target: human parathyroid hormone type 2 receptor (PTH2 receptor) (human) (UniProt P49190); assay: cell-based or functional assay; remark: listed apart in the source
[13] = biological target: human parathyroid hormone type 1 receptor (PTH1 receptor) (human) (UniProt Q03431); assay: cell-based or functional assay
[14] = biological target: T1, human parathyroid hormone type 2 receptor (PTH2 receptor) (human, UniProt P49190 25-550); assay: displacement of [125I]TIP39, 293PTH2 membranes, filtration assay
T1 construct: whole, on cells; also called human PTH2 receptor; hPTH2 receptor

[15] = biological target: T2, human parathyroid hormone type 1 receptor (PTH1 receptor) (human, UniProt Q03431 27-593); assay: saturation binding, HEK293 membranes, filtration
T2 construct: whole, on cells; also called human PTH1 receptor
T2 sequence (looked up): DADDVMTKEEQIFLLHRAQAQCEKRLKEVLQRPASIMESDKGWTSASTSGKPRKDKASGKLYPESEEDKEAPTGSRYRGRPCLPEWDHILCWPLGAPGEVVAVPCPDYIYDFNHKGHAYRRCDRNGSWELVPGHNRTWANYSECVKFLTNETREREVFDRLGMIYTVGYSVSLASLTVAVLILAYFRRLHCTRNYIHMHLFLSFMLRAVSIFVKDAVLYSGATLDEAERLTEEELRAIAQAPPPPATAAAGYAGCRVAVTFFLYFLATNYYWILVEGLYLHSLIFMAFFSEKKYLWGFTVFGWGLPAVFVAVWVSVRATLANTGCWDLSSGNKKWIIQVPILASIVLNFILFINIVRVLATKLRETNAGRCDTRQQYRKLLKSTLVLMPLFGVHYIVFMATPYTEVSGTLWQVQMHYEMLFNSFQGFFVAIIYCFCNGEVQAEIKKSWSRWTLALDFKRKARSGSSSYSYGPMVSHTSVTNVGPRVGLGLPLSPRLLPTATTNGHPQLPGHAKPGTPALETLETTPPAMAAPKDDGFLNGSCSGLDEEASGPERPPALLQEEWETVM

[16] = biological target: T2, human parathyroid hormone type 1 …; assay: radioligand binding, HEK293 membranes, filtration
[17] = biological target: T2, human parathyroid hormone type 1 …; assay: dissociation time course of the radioligand, HEK293 membranes
[18] = biological target: T2, human parathyroid hormone type 1 …; assay: y intercept of kon(obs) against radioligand concentration, HEK293 membranes
[19] = biological target: T2, human parathyroid hormone type 1 …; assay: kinetically derived from association and dissociation of the radioligand, HEK293 membranes
[20] = biological target: T2, human parathyroid hormone type 1 …; assay: radioligand association kinetics, HEK293 membranes, filtration; value held constant in the fit of FIG. G
[21] = biological target: T2, human parathyroid hormone type 1 …; assay: radioligand dissociation kinetics, HEK293 membranes, filtration; value held constant in the fit of FIG. G
[22] = biological target: T2, human parathyroid hormone type 1 …; assay: cell-based or functional assay
[23] = biological target: T2, human parathyroid hormone type 1 …; assay: radioligand displacement, 293PTH1 membranes, centrifugation assay, 10 µM GTPγS
[24] = biological target: T1, human parathyroid hormone type 2 …; assay: displacement of [125I]TIP39, 293PTH2 membranes, centrifugation assay, 10 µM GTPγS
[25] = biological target: T2, human parathyroid hormone type 1 …; assay: displacement of [125I][Nle8,21,Tyr34]rPTH(1-34), 293PTH1 membranes, filtration assay
[26] = biological target: T2, human parathyroid hormone type 1 …; assay: displacement of [125I][Nle8,21,Tyr34]rPTH(1-34), 293PTH1 membranes, centrifugation assay, 10 µM GTPγS
human glucagon receptor = biological target: T3, human glucagon receptor (human, UniProt P47871 26-477); assay: displacement of [125I]glucagon, intact COS-7 cells
T3 construct: whole, on cells
T3 sequence (P47871 26-477): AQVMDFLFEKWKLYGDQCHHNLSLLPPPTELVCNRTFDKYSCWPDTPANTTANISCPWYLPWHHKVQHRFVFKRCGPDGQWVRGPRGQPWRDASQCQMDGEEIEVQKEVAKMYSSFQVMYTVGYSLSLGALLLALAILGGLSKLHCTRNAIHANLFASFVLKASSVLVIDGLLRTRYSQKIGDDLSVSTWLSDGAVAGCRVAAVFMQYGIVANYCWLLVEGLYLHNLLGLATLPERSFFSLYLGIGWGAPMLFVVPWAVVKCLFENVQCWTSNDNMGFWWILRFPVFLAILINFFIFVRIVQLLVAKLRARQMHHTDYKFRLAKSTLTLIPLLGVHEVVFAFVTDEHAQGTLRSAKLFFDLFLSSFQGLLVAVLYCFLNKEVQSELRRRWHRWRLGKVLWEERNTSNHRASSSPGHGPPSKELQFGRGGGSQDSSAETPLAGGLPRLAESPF

T1 sequence (P49190 25-550): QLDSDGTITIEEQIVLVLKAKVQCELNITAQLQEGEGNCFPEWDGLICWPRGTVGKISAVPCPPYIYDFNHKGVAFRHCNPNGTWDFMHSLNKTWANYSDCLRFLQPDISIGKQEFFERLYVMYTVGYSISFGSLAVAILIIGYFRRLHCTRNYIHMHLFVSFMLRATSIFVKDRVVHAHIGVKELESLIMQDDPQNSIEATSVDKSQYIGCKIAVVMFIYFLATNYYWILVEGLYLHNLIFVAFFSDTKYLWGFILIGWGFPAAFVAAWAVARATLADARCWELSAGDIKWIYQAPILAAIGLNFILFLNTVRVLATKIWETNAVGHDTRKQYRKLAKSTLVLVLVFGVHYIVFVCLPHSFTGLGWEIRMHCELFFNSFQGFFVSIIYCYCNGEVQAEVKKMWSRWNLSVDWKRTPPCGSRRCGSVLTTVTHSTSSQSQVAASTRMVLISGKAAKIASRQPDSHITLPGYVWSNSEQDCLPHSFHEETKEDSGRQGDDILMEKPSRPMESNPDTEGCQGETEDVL
human parathyroid hormone type 2 receptor (PTH2 receptor) (human), sequence (P49190 25-550): as above
rat PTH2 receptor, sequence (P70555 25-546): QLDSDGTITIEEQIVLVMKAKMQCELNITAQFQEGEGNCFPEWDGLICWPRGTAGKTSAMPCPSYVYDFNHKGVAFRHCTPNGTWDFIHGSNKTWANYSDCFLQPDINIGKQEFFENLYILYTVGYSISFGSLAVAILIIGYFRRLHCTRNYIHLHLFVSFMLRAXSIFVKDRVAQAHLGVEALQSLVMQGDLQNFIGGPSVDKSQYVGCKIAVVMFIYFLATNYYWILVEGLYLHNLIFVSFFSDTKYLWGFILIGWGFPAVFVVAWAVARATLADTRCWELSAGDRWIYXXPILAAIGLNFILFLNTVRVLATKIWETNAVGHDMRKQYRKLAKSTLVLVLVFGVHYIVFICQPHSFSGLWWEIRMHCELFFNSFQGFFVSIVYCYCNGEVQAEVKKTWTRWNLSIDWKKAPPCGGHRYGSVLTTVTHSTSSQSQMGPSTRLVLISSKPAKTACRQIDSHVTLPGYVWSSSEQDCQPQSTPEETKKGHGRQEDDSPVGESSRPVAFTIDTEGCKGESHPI

maximal ligand-stimulated cAMP production [1]: 4 pmol.well^-1
maximal ligand-stimulated cAMP production (25 µl assay volume) [1]: 6 pmol.well^-1
Emax, % of response of hPTH2r to 1 µM hPTH(1-34) (rat PTH2 receptor): 22%
Emax, % of response of rPTH2r to 3 µM rPTH(1-34) (rat PTH2 receptor): 43%
Molecule: hPTH(1-34) (from UniProt P01270 32-65) (peptide)

fold difference of IC50 against TIP(7-39) [2]: 7.3 fold
Molecule: [D-Tryp^12, Tyr^34]bPTH(7-34) amide (from UniProt P01268 38-65) (peptide)

Emax, % of the maximal response to rPTH(1-34) (cAMP, COS-7 cells) [3]: 26%
-logEC50 (cAMP accumulation) [1]: 8.28
EC50 (cAMP accumulation) [1]: 5.2 nM
Emax, % of response to 1 µM hPTH(1-34) [1]: 37%
koff [4]: 0.0005 s⁻¹
Molecule: [Nle^8,18, Tyr^34]bPTH(3-34) amide (from UniProt P01268 34-65) (peptide)

Emax, % of response to 1 µM hPTH(1-34) [1]: 25%
Emax, % of response of hPTH2r to 1 µM hPTH(1-34) (rat PTH2 receptor): 7%
Emax, % of response of rPTH2r to 3 µM rPTH(1-34) (rat PTH2 receptor): 14%
Molecule: PTHrP(1-34) (from UniProt P12272 37-70) (peptide)

signal-to-noise ratio [5]: 6
koff [6]: 0.00102 s⁻¹
Molecule: [^125I][Nle^8,18, Tyr^34]bPTH(3-34) (from UniProt P01268 34-65) (peptide)

pA2 (shift of rPTH(1-34) cAMP EC50 by 1 µM antagonist) [1]: 6.5
pA2 as concentration [1]: 320 nM
pA2 (shift of rPTH(1-34) cAMP EC50 by 1 µM antagonist) (rat PTH2 receptor): 6.5
pA2 as concentration (rat PTH2 receptor): 310 nM
Molecule: [Nle^8,18, D-Tryp^12, Tyr^34]bPTH(7-34) amide (from UniProt P01268 38-65) (peptide)

IC50 [7]: 1.1 nM
fold increase of IC50 with GTPγS [8]: 1.5 fold
Molecule: [Nle^8,21, Tyr^34]rPTH(1-34) amide (from UniProt P04089 32-65) (peptide)

binding result [14]: binds
B4: TIP(5-39) (peptide)
peptide: ADDAAFRERARLLAALERRHWLNSYMHKLLVLDAP

fold-shift of rPTH(1-34) EC50 by 1 µM TIP(7-39), 20% human plasma [22]: 11 fold
fold-shift of rPTH(1-34) EC50 by 1 µM TIP(7-39), absence of plasma [22]: 7 fold
fold lower affinity than full-length TIP39 [14]: 70 fold
fold higher affinity than TIP39 [23]: 12 fold
-logIC50 [24]: 7.01
IC50 [24]: 98 nM
fold lower binding potency than full-length TIP39 [24]: 32 fold
fold higher affinity than TIP39 [25]: 5.6 fold
-logIC50 [26]: 8.3
IC50 [26]: 5 nM
B7: TIP(7-39) (peptide)
peptide: DAAFRERARLLAALERRHWLNSYMHKLLVLDAP
notes: also called bTIP(7-39)

binding result [14]: binds
B9: TIP(2-39) (peptide)
peptide: LALADDAAFRERARLLAALERRHWLNSYMHKLLVLDAP
notes: N-terminally truncated TIP39 analogue from Biomolecules Midwest

Further lines, the molecule ahead of its results:

Molecule: hPTH(1-84) (from UniProt P01270 32-115) (peptide)
Emax, % of response to 1 µM hPTH(1-34) [1]: 79%

Molecule: [Nle^8,18, Tyr^34]bPTH(1-34) (from UniProt P01268 32-65) (peptide)
-logEC50 (cAMP accumulation) [1]: 8.41
EC50 (cAMP accumulation) [1]: 3.9 nM
Emax, % of response to 1 µM hPTH(1-34) [1]: 76%
-logEC50 (cAMP accumulation) (rat PTH2 receptor): 6.85
EC50 (cAMP accumulation) (rat PTH2 receptor): 141 nM
Emax, % of response of hPTH2r to 1 µM hPTH(1-34) (rat PTH2 receptor): 5%
Emax, % of response of rPTH2r to 3 µM rPTH(1-34) (rat PTH2 receptor): 19%

Molecule: [^125I][Nle^8,21, Tyr^34]rPTH(1-34) (from UniProt P04089 32-65) (peptide)
signal-to-noise ratio [9]: 3.5 fold
signal-to-noise ratio [10]: 2 fold
total binding (cpm) [11]: 4400 cpm and 4800 cpm

B1: bPTH(3-34) (peptide, UniProt P01268 34-65, looked up)
peptide: SEIQFMHNLGKHLSSMERVEWLRKKLQDVHNF
-logEC50 (cAMP accumulation) [12]: 8.05
EC50 (cAMP accumulation) [12]: 8.9 nM
Emax, % of response to 1 µM hPTH(1-34) [12]: 38%

B2: rPTH(1-34) (peptide, UniProt P04089 32-65, looked up)
peptide: AVSEIQLMHNLGKHLASVERMQWLRKKLQDVHNF
modifications: also: binding, rPTH(1-34) denotes the [Nle8,21, Tyr34] analogue
EC50 (cAMP production, HEK293 cells) [13]: 0.5 nM
-logEC50 (cAMP accumulation) [12]: 9.39
EC50 (cAMP accumulation) [12]: 0.41 nM
EC50 (cAMP production, HEK293 cells) [12]: 58000 nM
EC50 (cAMP) [12]: 0.15 nM
Emax [12]: 85%
Emax, % of response to 1 µM hPTH(1-34) [12]: 94%
-logEC50 (cAMP accumulation) (rat PTH2 receptor): 7.09
EC50 (cAMP accumulation) (rat PTH2 receptor): 81 nM
EC50 (cAMP) (rat PTH2 receptor): 49 nM
Emax, % of response of hPTH2r to 1 µM hPTH(1-34) (rat PTH2 receptor): 46%
Emax, % of response of rPTH2r to 3 µM rPTH(1-34) (rat PTH2 receptor): 100%
maximal ligand-stimulated cAMP production (50 µl-volume assays) (rat PTH2 receptor): 2.1 pmol.well^-1

B3: TIP(3-39) (peptide)
peptide: ALADDAAFRERARLLAALERRHWLNSYMHKLLVLDAP
binding result [14]: binds

B5: rPTH(1-84) (peptide, UniProt P04089 32-115, looked up)
peptide: AVSEIQLMHNLGKHLASVERMQWLRKKLQDVHNFVSLGVQMAAREGSYQRPTKKEENVLVDGNSKSLGEGDKADVDVLVKAKSQ
-logEC50 (cAMP accumulation) [12]: 9.24
EC50 (cAMP accumulation) [12]: 0.58 nM
Emax, % of response to 1 µM hPTH(1-34) [12]: 98%
-logEC50 (cAMP accumulation) (rat PTH2 receptor): 7.72
EC50 (cAMP accumulation) (rat PTH2 receptor): 19 nM
Emax, % of response of hPTH2r to 1 µM hPTH(1-34) (rat PTH2 receptor): 28%
Emax, % of response of rPTH2r to 3 µM rPTH(1-34) (rat PTH2 receptor): 97%

B6: [^125I]TIP(7-39) (peptide)
peptide: DAAFRERARLLAALERRHWLNSY(125I)MHKLLVLDAP
notes: 2000 Ci/mmol; also called radiolabeled TIP(7-39)
Kd [15]: 1.3 nM
total binding: non-specific binding ratio [16]: ~5
koff [17]: 0.000833 s⁻¹
koff [18]: 0.00128 s⁻¹
Kd [19]: 0.57 nM
kon [20]: 1.48e+06 M⁻¹ s⁻¹
koff [21]: 0.00085 s⁻¹

B8: tuberinfundibular peptide of 39 residues (TIP39), bovine sequence, synthetic (peptide)
peptide: SLALADDAAFRERARLLAALERRHWLNSYMHKLLVLDAP
notes: Chemically synthesized 39 residue peptide (Anaspec or Biomolecules Midwest); also called bTIP39; synthetic hypothalamic peptide
maximal effect against PTH (rat PTH2 receptor): ~3 fold
binding result (human glucagon receptor): no binding (tested: 1 µM)
